Data set [1] relates to MCF7. Nature of the data set: percentage of EdU-negative (G0-arrested) nuclei per well, 72 h; higher = more G0 arrest. Particulars: reference: sequence is the full UniProt precursor, the tested protein was the secreted form or ectodomain.
The test system of data set [2] is hTERT-HMEC. The description is as above. Particulars: reference: sequence is the full UniProt precursor, the tested protein was the secreted form or ectodomain.
Setting [3] is: protein concentration 0.0225 µM.
The mark [4] stands for this setting: protein concentration 0.02225 µM.
[5] abbreviates: protein concentration 0.2225 µM.

± gives the standard deviation of the averaged measurements.
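Note: secreted proteins added to cultured cells, EdU pulse at the end, nuclei found by Hoechst imaging, EdU status from nuclear versus surrounding ring intensity ratio, PBS as neutral control.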

On to “MGLFRGFVFLLVLCLLHQSNTSFIKLNNNGFEDIVIVIDPSVPEDEKIIEQIEDMVTTASTYLFEATEKRFFFKNVSILIPENWKENPQYKRPKHENHKHADVIVAPPTLPGRDEPYTKQFTECGEKGEYIHFTPDLLLGKKQNEYGPPGKLFVHEWAHLRWGVFDEYNEDQPFYRAKSKKIEATRCSAGISGRNRVYKCQGGSCLSRACRIDSTTKLYGKDCQFFPDKVQTEKASIMFMQSIDSVVEFCNEKTHNQEAPSLQNIKCNFRSTWEVISNSEDFKNTIPMVTPPPPPVFSLLKISQRIVCLVLDKSGSMGGKDRLNRMNQAAKHFLLQTVENGSWVGMVHFDSTATIVNKLIQIKSSDERNTLMAGLPTYPLGGTSICSGIKYAFQVIGELHSQLDGSEVLLLTDGEDNTASSCIDEVKQSGAIVHFIALGRAADEAVIEMSKITGGSHFYVSDEAQNNGLIDAFGALTSGNTDLSQKSLQLESKGLTLNSNAWMNDTVIIDSTVGKDTFFLITWNSLPPSISLWDPSGTIMENFTVDATSKMAYLSIPGTAKVGTWAYNLQAKANPETLTITVTSRAANSSVPPITVNAKMNKDVNSFPSPMIVYAEILQGYVPVLGANVTAFIESQNGHTEVLELLDNGAGADSFKNDGVYSRYFTAYTENGRYSLKVRAHGGANTARLKLRPPLNRAAYIPGWVVNGEIEANPPRPEIDEDTQTTLEDFSRTASGGAFVVSQVPSLPLPDQYPPSQITDLDATVHEDKIILTWTAPGDNFDVGKVQRYIIRISASILDLRDSFDDALQVNTTDLSPKEANSKESFAFKPENISEENATHIFIAIKSIDKSNLTSKVSNIAQVTLFIPQANPDDIDPTPTPTPTPTPDKSHNSGVNISTLVLSVIGSVVIVNFILSTTI [Q14CN2]”, for which the “percentage of EdU-negative” value came to 26.84 ± 0.26% in data set [1] (setting [3]), 30.6 ± 2% in data set [1] (protein concentration 0.225 µM), 6.239 ± 0.015% in data set [2] (setting [3]) and 66 ± 6.4% in data set [2] (protein concentration 0.225 µM).

Regarding “MGLGPVFLLLAGIFPFAPPGAAAEPHSLRYNLTVLSWDGSVQSGFLTEVHLDGQPFLRCDRQKCRAKPQGQWAEDVLGNKTWDRETRDLTGNGKDLRMTLAHIKDQKEGLHSLQEIRVCEIHEDNSTRSSQHFYYDGELFLSQNLETKEWTMPQSSRAQTLAMNVRNFLKEDAMKTKTHYHAMHADCLQELRRYLKSGVVLRRTVPPMVNVTRSEASEGNITVTCRASGFYPWNITLSWRQDGVSLSHDTQQWGDVLPDGNGTYQTWVATRICQGEEQRFTCYMEHSGNHSTHPVPSGKVLVLQSHWQTFHVSAVAAAAIFVIIIFYVRCCKKKTSAAEGPELVSLQVLDQHPVGTSDHRDATQLGFQPLMSDLGSTGSTEGA”, the “percentage of EdU-negative” value in data set [1] (setting [4]) was 24.7 ± 0.99%; in data set [1] (setting [5]) it was 26.3 ± 1.6%; in data set [2] (setting [4]), 5.41 ± 0.075%; in data set [2] (setting [5]), 6.78 ± 1.8%.

For the sequence “MGLGTLSPRMLVWLVASGIVFYGELWVCAGLDYDYTFDGNEEDKTETIDYKDPCKAAVFWGDIALDDEDLNIFQIDRTIDLTQNPFGNLGHTTGGLGDHAMSKKRGALYQLIDRIRRIGFGLEQNNTVKGKVPLQFSGQNEKNRVPRAATSRTERIWPGGVIPYVIGGNFTGSQRAMFKQAMRHWEKHTCVTFIERSDEESYIVFTYRPCGCCSYVGRRGNGPQAISIGKNCDKFGIVVHELGHVIGFWHEHTRPDRDNHVTIIRENIQPGQEYNFLKMEPGEVNSLGERYDFDSIMHYARNTFSRGMFLDTILPSRDDNGIRPAIGQRTRLSKGDIAQARKLYRCPACGETLQESNGNLSSPGFPNGYPSYTHCIWRVSVTPGEKIVLNFTTMDLYKSSLCWYDYIEVRDGYWRKSPLLGRFCGDKLPEVLTSTDSRMWIEFRSSSNWVGKGFAAVYEAICGGEIRKNEGQIQSPNYPDDYRPMKECVWKITVSESYHVGLTFQSFEIERHDNCAYDYLEVRDGTSENSPLIGRFCGYDKPEDIRSTSNTLWMKFVSDGTVNKAGFAANFFKEEDECAKPDRGGCEQRCLNTLGSYQCACEPGYELGPDRRSCEAACGGLLTKLNGTITTPGWPKEYPPNKNCVWQVVAPTQYRISVKFEFFELEGNEVCKYDYVEIWSGLSSESKLHGKFCGAEVPEVITSQFNNMRIEFKSDNTVSKKGFKAHFFSDKDECSKDNGGCQHECVNTMGSYMCQCRNGFVLHDNKHDCKEAECEQKIHSPSGLITSPNWPDKYPSRKECTWEISATPGHRIKLAFSEFEIEQHQECAYDHLEVFDGETEKSPILGRLCGNKIPDPLVATGNKMFVRFVSDASVQRKGFQATHSTECGGRLKAESKPRDLYSHAQFGDNNYPGQVDCEWLLVSERGSRLELSFQTFEVEEEADCGYDYVELFDGLDSTAVGLGRFCGSGPPEEIYSIGDSVLIHFHTDDTINKKGFHIRYKSIRYPDTTHTKK”, the “percentage of EdU-negative” value in data set [1] (protein concentration 0.014 µM) was 24.6 ± 2.5%; in data set [1] (protein concentration 0.14 µM), 29.6 ± 1.9%; in data set [2] (protein concentration 0.014 µM), 4.501 ± 0.026%; in data set [2] (protein concentration 0.14 µM) it was 5.35 ± 1.3%.

On to “MGLHLRPYRVGLLPDGLLFLLLLLMLLADPALPAGRHPPVVLVPGDLGNQLEAKLDKPTVVHYLCSKKTESYFTIWLNLELLLPVIIDCWIDNIRLVYNKTSRATQFPDGVDVRVPGFGKTFSLEFLDPSKSSVGSYFHTMVESLVGWGYTRGEDVRGAPYDWRRAPNENGPYFLALREMIEEMYQLYGGPVVLVAHSMGNMYTLYFLQRQPQAWKDKYIRAFVSLGAPWGGVAKTLRVLASGDNNRIPVIGPLKIREQQRSAVSTSWLLPYNYTWSPEKVFVQTPTINYTLRDYRKFFQDIGFEDGWLMRQDTEGLVEATMPPGVQLHCLYGTGVPTPDSFYYESFPDRDPKICFGDGDGTVNLKSALQCQAWQSRQEHQVLLQELPGSEHIEMLANATTLAYLKRVLLGP [Q8NCC3]”, for which the “percentage of EdU-negative” value in data set [1] (setting [3]) worked out at 25.3 ± 2.1%; in data set [1] (protein concentration 0.225 µM), 24.9 ± 0.58%; in data set [2] (setting [3]), 4.6 ± 0.49%; in data set [2] (protein concentration 0.225 µM), 6.68 ± 0.68%.

In the case of “MGLIWLLLLSLLEPGWPAAGPGARLRRDAGGRGGVYEHLGGAPRRRKLYCATKYHLQLHPSGRVNGSLENSAYSILEITAVEVGIVAIRGLFSGRYLAMNKRGRLYASEHYSAECEFVERIHELGYNTYASRLYRTVSSTPGARRQPSAERLWYVSVNGKGRPRRGFKTRRTQKSSLFLPRVLDHRDHEMVRQLQSGLPRPPGKGVQPRRRRQKQSPDNLEPSHVQASRLGSQLEASAH”, the “percentage of EdU-negative” value worked out at 26.1 ± 0.46% in data set [1] (protein concentration 0.01 µM), 27.4 ± 0.42% in data set [1] (protein concentration 0.1 µM), 5.1 ± 0.81% in data set [2] (protein concentration 0.01 µM) and 6.93 ± 0.14% in data set [2] (protein concentration 0.1 µM).
